From patent publication US20190040106A1, “USE OF HUMAN DERIVED IMMUNOSUPPRESSIVE PROTEINS AND PEPTIDES AS MEDICAMENTS” (AIMVION A/S, priority 2015, published 2019)
Bridge positions count the residues as written; N and C are the ends. Ends that are not written are not given here. Peptide text beside a SMILES is read from it. I, II: the chains in the order shown.

Test system: THP-1 or HT-1080 cells
Assay: CellTiter-Blue Cell Viability Assay, toxicity profile of peptides
Conditions: about 20 h exposure
Source text: Here, we examined the cytotoxicity effect of peptides SG#1 to SG#17 (ID1031 to ID1047) on two human cell lines THP-1 or HT-1080 cells.
The CellTiter-Blue® Cell Viability Assay provides a homogenous, fluorometric method for estimating the number of viable cells present in multiwall plates. It uses the indicator dye resazurin to measure the metabolic capacity of cells—an indicator of cell viability. Viable cells retain the ability to reduce resazurin into resorufin, which is highly fluorescent.
The CellTiter-Blue® Reagent is a buffered solution containing highly purified resazurin. Resazurin is dark blue in color and has little intrinsic fluorescence. However, when it is reduced to resorufin, it becomes pink and highly fluorescent (579EX/584EM).
• 1. Set up 96-well assay plates containing cells in culture medium. For HT-1080, plate 1.6×10^4 cells per well on the Day 1 of the experiment. Cells are plated in 100 μl complete culture medium (DMEM) per well. • 2. On day 2, gently remove medium and add 50 μl of complete DMEM medium, add peptides and vehicle controls to appropriate wells so the final volume is 100 μl in each well. Supplement with complete DMEM where necessary. • 3. Culture cells for the desired test exposure period, about 20 h. • 4. On day 3, remove assay plates from 37° C. incubator and add 20 μl/well of CellTiter-Blue® Reagent. • 5. Shake for 10 seconds. • 6. Incubate using standard cell culture conditions for 4 hours. • 7. Shake plate for 10 seconds and record fluorescence at 560/590 nm
Toxicity profile for peptides SG#1 to SG#17 (ID1031 to ID1047). All peptides were tested at the dosage increment (10 nm, 30 nM, 100 nM, 1 μM, 10 μM, 30 μM, 100 μM and 300 μM).

With “LQNRRGLGLSILLNEELQNRRGLC (Possibly HERV) [SG#12]” the “Toxicity yes/no at the 300 μM conc.” value was “No”.

In the case of LQNRRGLGLSILLNEECGPGPGP [SG#10], the “Toxicity yes/no at the 300 μM conc.” value is reported as “No”.

In the case of LQNRRGLGLSILLNC (Possibly HERV) [SG#4], the “Toxicity yes/no at the 300 μM conc.” value is reported as “No”.

For “LQNRRGLGLSILLNEECGPKK (Possibly HERV) [SG#11]”, the “Toxicity yes/no at the 300 μM conc.” value was “No”.

With `CC[C@H](C)[C@H](NC(=O)[C@H](CO)NC(=O)[C@H](CC(C)C)NC(=O)CNC(=O)[C@H](CCCCNC(=O)[C@H](CC(C)C)NC(=O)CNC(=O)[C@H](CCCNC(=N)N)NC(=O)[C@H](CCCNC(=N)N)NC(=O)[C@H](CC(N)=O)NC(=O)[C@H](CCC(N)=O)NC(=O)[C@@H](N)CC(C)C)NC(=O)[C@H](CC(C)C)NC(=O)CNC(=O)[C@H](CCCNC(=N)N)NC(=O)[C@H](CCCNC(=N)N)NC(=O)[C@H](CC(N)=O)NC(=O)[C@H](CCC(N)=O)NC(=O)[C@@H](N)CC(C)C)C(=O)N[C@@H](CC(C)C)C(=O)N[C@@H](CC(C)C)C(=O)N[C@@H](CC(N)=O)C(=O)N[C@@H](CCC(=O)O)C(=O)N[C@@H](CCC(=O)O)C(=O)O` [SG#16] (I: H-LQNRRGLKGLSILLNEE-OH / II: H-LQNRRGL; amide I:8-II:C) the “Toxicity yes/no at the 300 μM conc.” value was “No”.

In the case of LQNRRGLGLSILLNEELQNRRGL [SG#14], the “Toxicity yes/no at the 300 μM conc.” value is reported as “No”.

“LNRKAIGLSILLNEECGPGPGP (Possibly HERV) [SG#6]” was tested, and the “Toxicity yes/no at the 300 μM conc.” value was “No”.

LQNRRGLGLSILLNEE [SG#13] was tested, and the “Toxicity yes/no at the 300 μM conc.” value was “No”.
